# Data reported in patent US20150166643A1 (Alexion, published 2015).
# How the values were obtained:
# [1] = molecular target: T1, human factor B (purified, Complement Technology A135) (human, UniProt P00751 26-764); test: BLI (Octet), mAb on anti-human Fc biosensor, 50 nM human factor B
# T1 construct: also called fB; human complement factor B
# Description: (§1) Binding kinetics of TA106-originated mAbs were analyzed using a FortéBio® Octet® biosensor (FortéBio, Inc.) in a similar protocol as described previously. In one exemplary experiment, wild type (CLS011) and the variant S33A (CLS013) mAbs were captured on anti-human Fc biosensors at a concentration of 5 μg/mL, diluted in 1× kinetics buffer (KB, a proprietary formulation containing PBS/Tween). Capture (loading) was carried out for 400 seconds, followed by briefly dipping the biosensors in 1×KB as a wash for 30 seconds. Associations with a titration series of purified human Factor B (Complement Technology, Tyler, Tex.), which concentrations range from 50 to 3 nM (diluted in 1×KB), were carried out for 300 seconds.
# [2] = molecular target: T1, human factor B (purified, Complement …); test: cell-based or functional assay
# [3] = molecular target: T1, human factor B (purified, Complement …); test: SPR (Biacore 3000), mAb captured by anti-Fc antibody on CM5 chip, soluble human factor B 3.1-200 nM
# From the text: (§2) Binding kinetics of mAbs were further characterized using Biacore's Surface Plasmon Resonance (SPR) technology (GE Healthcare, Piscataway, N.J.). For a detailed description of SPR and its applications in affinity measurement, please see Karlsson and Larsson, Antibody Engineering: Methods and Protocols, Methods in Molecular Biology (2003), 248: 389-415. In one exemplary experiment, TA106 Fab and derivative mAbs were captured on chips of a Biacore 3000 analyzer and samples of human factor B of different concentrations were flowed as the antigen over the surface to model soluble human factor B binding, using protocols recommended by the manufacturer (e.g., in the product brochure #BR-9003-31). All these referenced publications are hereby incorporated by reference in their entirety. […] Fab TA106 (Xoma, Lot#TTA1007, 20 mg/mL) was then flowed over one flow cell, followed by injections of human factor B on both flow cells. Concentrations (factor B) between 3.1-200 nM were run. The surface was regenerated between each cycle. […] The affinities of mAbs, i.e., CLS011, CLS012, and CLS013, were determined using a similar capture approach. In one exemplary experiment, human anti-Fc antibody was amine coupled to two flow cells of a CM5 chip. Each of the TA106-originated mAbs was then flowed over one flow cell, followed by injecting human factor B (3.1-200 nM) on both flow cells. […]
# [4] = molecular target: T1, human factor B (purified, Complement …); test: BLI (Octet), mAb on anti-human Fc biosensor, 12.5 nM human factor B
# Description: as §1
# [5] = molecular target: T1, human factor B (purified, Complement …); test: SPR, captured mAb, soluble factor B (summary table)
# From the text: as §2
# [6] = molecular target: T1, human factor B (purified, Complement …); test: BLI (Octet), mAb on anti-human Fc biosensor, 25 nM human factor B
# Description: as §1
# [7] = molecular target: T1, human factor B (purified, Complement …); test: SPR (Biacore), CLS011 captured on anti-Fc surface, soluble factor B 3.1-100 nM flowed; Chi2 0.283
# From the text: as §2
# [8] = molecular target: T1, human factor B (purified, Complement …); test: ELISA, human factor B coated at 0.5 ug/mL, detection with sheep anti-human kappa light chain HRP, abs 450 nm against nM antibody
# Description: The binding activities of these mAbs towards factor B were analyzed by ELISA using standard protocols. In one exemplary experiment, MaxiSorp™ ELISA plates (Nunc, #439454, Rochester, N.Y.) were coated with 50 μL of human factor B (Complement Technology, A135, 1 mg/mL, lot 14c) at a concentration of 0.5 μg/mL in carbonate coating buffer (0.795 g carbonate+1.46 g bicarbonate+1 mL 1% NaN₃ (final concentration of 0.002%) in 500 mL water, pH 9.6 (lot 02 August 10)). Plates then were covered with plate sealers and incubated at 37±1° C. for one hour. Following coating, wells were emptied of reagent and washed in a BioTek® ELx405 plate washer (BioTek, Winooski, Vt.) for three times with 200 μL wash solution (PBS/0.05% Tween 20) per well. Following washes, wells were blocked with 100 μL of BSA (1% w/v) and incubated for one hour at room temperature. Wells were then washed again as described above. Fifty microliter samples (i.e., TA106 Fab, CLS011 mAb, CLS012 mAb, and CLS013 mAb) were then added to wells and incubated for one hour at room temperature. […] The plate was read on a Benchmark™ microplate reader (Bio-Rad Laboratories, Hercules, Calif.) at 450 nm. Standard curves were plotted with 4 parameter fit with DeltaSoft® 1.6 software, and sample concentrations were determined from the standard curves.
# [9] = molecular target: T1, human factor B (purified, Complement …); test: SPR (Biacore), CLS013 captured on anti-Fc surface, soluble factor B 3.1-100 nM flowed; Chi2 1.05
# From the text: as §2
# T1 sequence (P00751 26-764): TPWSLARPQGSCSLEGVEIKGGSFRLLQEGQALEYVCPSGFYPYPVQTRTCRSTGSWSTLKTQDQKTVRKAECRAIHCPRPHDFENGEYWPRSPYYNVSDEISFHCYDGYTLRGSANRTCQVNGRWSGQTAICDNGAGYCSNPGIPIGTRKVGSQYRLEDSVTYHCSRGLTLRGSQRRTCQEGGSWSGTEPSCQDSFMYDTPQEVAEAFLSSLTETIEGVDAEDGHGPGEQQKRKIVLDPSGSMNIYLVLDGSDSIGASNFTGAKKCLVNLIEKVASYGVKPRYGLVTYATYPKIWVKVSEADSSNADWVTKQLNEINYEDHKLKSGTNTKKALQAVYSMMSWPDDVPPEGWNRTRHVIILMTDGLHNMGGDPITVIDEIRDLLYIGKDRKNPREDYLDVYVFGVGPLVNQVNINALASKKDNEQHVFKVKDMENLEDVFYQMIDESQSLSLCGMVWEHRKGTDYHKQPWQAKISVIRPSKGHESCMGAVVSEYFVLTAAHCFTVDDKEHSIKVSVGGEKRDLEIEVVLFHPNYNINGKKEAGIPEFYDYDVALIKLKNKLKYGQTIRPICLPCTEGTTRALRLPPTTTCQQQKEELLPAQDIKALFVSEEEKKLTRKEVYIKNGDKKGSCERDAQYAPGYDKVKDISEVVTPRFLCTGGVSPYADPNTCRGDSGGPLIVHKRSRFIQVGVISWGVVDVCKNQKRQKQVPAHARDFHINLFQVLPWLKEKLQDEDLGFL
Binder,Kd [1] [nM],koff [1] [s⁻¹],kon [1] [M⁻¹ s⁻¹],IC50 (read off the curve); lysis of rabbit red blood cells in 10% normal human serum [2] [nM],Kd [3] [nM],Kd [4] [nM],koff [4] [s⁻¹],kon [4] [M⁻¹ s⁻¹],Kd [5] [nM],Kd [6] [nM],koff [6] [s⁻¹],kon [6] [M⁻¹ s⁻¹],koff [7] [s⁻¹],kon [7] [M⁻¹ s⁻¹],EC50 (read off the curve) [8] [nM],koff [9] [s⁻¹],kon [9] [M⁻¹ s⁻¹]
"CLS011 (TA106-derivative full-length IgG2/4 mAb, wild type light chain, expressed in CHO cells) (antibody, V domains shown, N-linked glycans on the N31-S32-S33 motif of CDR1; N-linked glycans on the heavy chain (possibly at N296), Human IgG2/4 full-length mAb; also called CLS011 mAb; TA106-derivative mAb) VH: EVQLVQSGAEVKKPGASVKVSCKASGYSFTDYYMTWVRQAPGQGLEWMGWINPNSGGTKYAQKFQGRVTMTRDTSISTAYMELSRLRSDDTAVYYCARGYYANSAWFAYWGQGTLVTVSS VL: DIVMTQSPDSLAVSLGERATINCKSSQSLLNSSTSKNYLAWYQQKPGQPPKLLIYWASTRESGVPDRFSGSGSGTDFTLTISSLQAEDVAVYYCKQVYNLPWTFGQGTKLEIKR",24.9,0.00418,168000,~50,~15.4,11.1,0.00289,261000,15,17.3,0.00297,171000,0.00253,165000,,,
"CLS013 (TA106-derivative S33A variant, full-length IgG2/4 mAb, expressed in CHO cells) (antibody, V domains shown, N-linked glycans on the heavy chain, Human IgG2/4 full-length mAb; also called CLS013 mAb; TA106 variant S33A) VH: EVQLVQSGAEVKKPGASVKVSCKASGYSFTDYYMTWVRQAPGQGLEWMGWINPNSGGTKYAQKFQGRVTMTRDTSISTAYMELSRLRSDDTAVYYCARGYYANSAWFAYWGQGTLVTVSS VL: DIVMTQSPDSLAVSLGERATINCKSSQSLLNSATSKNYLAWYQQKPGQPPKLLIYWASTRESGVPDRFSGSGSGTDFTLTISSLQAEDVAVYYCKQVYNLPWTFGQGTKLEIKR",32.1,0.00504,157000,~20,~17.6,37.7,0.00428,114000,18,52.2,0.00472,90300,,,~0.4,0.00311,177000
